According to patent US20260242478A1 (published 2026):
Where no end group is shown, it is not given here.

Legend:
[1] = biological target: T1, PSMA Fab (biotinylated (site not given)); assay: phage ELISA on captured biotinylated PSMA Fab, wells pre-incubated with PSMA antigen (competitor: PSMA); anti-M13 HRP detection
T1 construct: Biotinylated PSMA Fab captured on neutravidin plates in the phage ELISA; also called Anti-PSMA Fab; 006 PSMA Fab

[2] = biological target: T1, PSMA Fab; assay: phage ELISA: clonal phage supernatant on biotinylated PSMA Fab captured on neutravidin plate, blocking buffer alone; anti-M13 HRP detection;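 also: crude clonal phage supernatants added to wells preincubated with blocking buffer, incubated briefly, bound phage detected with a horseradish-conjugated anti-M13 antibody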
Protocol: (§1) Clonal phage were harvested as crude supernatants and screened via standard ELISAs. […] Prior to the addition of clonal phage. wells were incubated with blocking buffer and PSMA antigen or blocking buffer alone. Without washing or aspirating, clonal phage supernatants were then added to the wells and incubated for a short time. Wells were then washed followed by detection of bound phage using a horse radish conjugated anti-M13 antibody.

[3] = biological target: T2, PSMA Fab; assay: clonal phage ELISA on biotinylated PSMA Fab captured on neutravidin plates, anti-M13-HRP detection; blocking buffer alone
T2 construct: Biotinylated and captured on neutravidin plates in the phage ELISA; also called Anti-PSMA Fab; 006 PSMA Fab
Protocol: as §1

B1: Phage-2467 (peptide, not shown: large carriers)
peptide: GDKWCIPDWMCVQS
modifications: cysteine pairing not given here; also: displayed as fusion to phage pIII
notes: Clonal phage of the Peptide-180 optimisation library, tested as crude supernatant
[1]
  Phage binding ELISA signal, Anti-PSMA Fab in presence of PSMA: 0.0692
[2]
  Phage binding ELISA signal, Anti-PSMA Fab: 1.24

B2: Phage-2468 (peptide, not shown: large carriers)
peptide: FEKWCIPAWMCEQV
modifications: cysteine pairing not given here; also: displayed as fusion to phage pIII
notes: as for B1
[1]
  Phage binding ELISA signal, Anti-PSMA Fab in presence of PSMA: 0.0596
[2]
  Phage binding ELISA signal, Anti-PSMA Fab: 1.24

B3: Phage-2469 (peptide, not shown: large carriers)
peptide: VSKWCTPAWMCSAM
modifications: cysteine pairing not given here; also: displayed as fusion to phage pIII
notes: as for B1
[1]
  Phage binding ELISA signal, Anti-PSMA Fab in presence of PSMA: 0.099
[2]
  Phage binding ELISA signal, Anti-PSMA Fab: 1.24

B4: Phage-2470 (peptide, not shown: large carriers)
peptide: VDKLCRPAWMCVAS
modifications: cysteine pairing not given here; also: displayed as fusion to phage pIII
notes: as for B1
[1]
  Phage binding ELISA signal, Anti-PSMA Fab in presence of PSMA: 0.0775
[2]
  Phage binding ELISA signal, Anti-PSMA Fab: 1.24

B5: Phage-2471 (peptide, not shown: large carriers)
peptide: MEKWCIPDWMCLGN
modifications: cysteine pairing not given here; also: displayed as fusion to phage pIII
notes: as for B1
[1]
  Phage binding ELISA signal, Anti-PSMA Fab in presence of PSMA: 0.0809
[2]
  Phage binding ELISA signal, Anti-PSMA Fab: 1.24

B6: Phage-2472 (peptide, not shown: large carriers)
peptide: FDKWCIPPWMCVGP
modifications: cysteine pairing not given here; also: displayed on phage as fusion to pIII, pIII and linker sequence not given here
notes: as for B1
[1]
  Phage binding ELISA signal, Anti-PSMA Fab in presence of PSMA: 0.0689
[2]
  Phage binding ELISA signal, Anti-PSMA Fab: 1.24

B7: Phage-2473 (peptide, not shown: large carriers)
peptide: PEHWCIPPWMCVVH
modifications: cysteine pairing not given here; also: displayed on phage as fusion to pIII, pIII and linker sequence not given here
notes: as for B1
[1]
  Phage binding ELISA signal, Anti-PSMA Fab in presence of PSMA: 0.513
[2]
  Phage binding ELISA signal, Anti-PSMA Fab: 1.24

B8: Phage-2474 (peptide, not shown: large carriers)
peptide: DFHMCTPRWMCEGM
modifications: cysteine pairing not given here; also: displayed on phage as fusion to pIII, pIII and linker sequence not given here
notes: as for B1
[1]
  Phage binding ELISA signal, Anti-PSMA Fab in presence of PSMA: 0.0622
[2]
  Phage binding ELISA signal, Anti-PSMA Fab: 1.24

B9: Phage-2475 (peptide, not shown: large carriers)
peptide: EHKWCTPLWMCEGL
modifications: cysteine pairing not given here; also: fused to phage pIII (clonal phage display)
notes: as for B1
[1]
  Phage binding ELISA signal, Anti-PSMA Fab in presence of PSMA: 0.09
[2]
  Phage binding ELISA signal, Anti-PSMA Fab: 1.23

B10: Phage-2476 (peptide, not shown: large carriers)
peptide: YHNWCVPQWMCVGL
modifications: cysteine pairing not given here; also: displayed on phage as fusion to pIII, pIII and linker sequence not given here
notes: as for B1
[1]
  Phage binding ELISA signal, Anti-PSMA Fab in presence of PSMA: 0.127
[2]
  Phage binding ELISA signal, Anti-PSMA Fab: 1.23

B11: Phage-2477 (peptide, not shown: large carriers)
peptide: VEKWCIPQWMCSMD
modifications: cysteine pairing not given here; also: displayed on phage as fusion to pIII, pIII and linker sequence not given here
notes: as for B1
[1]
  Phage binding ELISA signal, Anti-PSMA Fab in presence of PSMA: 0.0715
[2]
  Phage binding ELISA signal, Anti-PSMA Fab: 1.23

B12: Phage-2478 (peptide, not shown: large carriers)
peptide: EMIRCIPDWMCMSY
modifications: cysteine pairing not given here; also: displayed on phage as fusion to pIII, pIII and linker sequence not given here
notes: as for B1
[1]
  Phage binding ELISA signal, Anti-PSMA Fab in presence of PSMA: 0.0624
[2]
  Phage binding ELISA signal, Anti-PSMA Fab: 1.23

B13: Phage-2479 (peptide, not shown: large carriers)
peptide: GFPMCKPLWMCENL
modifications: cysteine pairing not given here; also: displayed on phage as fusion to pIII, pIII and linker sequence not given here
notes: as for B1
[1]
  Phage binding ELISA signal, Anti-PSMA Fab in presence of PSMA: 0.0667
[2]
  Phage binding ELISA signal, Anti-PSMA Fab: 1.23

B14: Phage-2480 (peptide, not shown: large carriers)
peptide: PFKWCTPAWMCEVH
modifications: cysteine pairing not given here; also: displayed on phage as fusion to pIII, pIII and linker sequence not given here
notes: as for B1
[1]
  Phage binding ELISA signal, Anti-PSMA Fab in presence of PSMA: 0.0594
[2]
  Phage binding ELISA signal, Anti-PSMA Fab: 1.23

B15: Phage-2481 (peptide, not shown: large carriers)
peptide: WSNWCIPPWMCAMN
modifications: cysteine pairing not given here; also: displayed on phage as fusion to pIII, pIII and linker sequence not given here
notes: as for B1
[1]
  Phage binding ELISA signal, Anti-PSMA Fab in presence of PSMA: 0.0771
[2]
  Phage binding ELISA signal, Anti-PSMA Fab: 1.23

B16: Phage-2527 (peptide)
peptide: LGHWCTPPWMCTES
modifications: cysteine pairing not given here; also: fused to phage pIII, linker and fusion site not given here
notes: Clonal phage of the Peptide-180 library, tested as crude supernatant; not shown: pIII coat protein of the bacteriophage to which the peptide is fused
[3]
  Phage binding ELISA signal, Anti-PSMA Fab: 1.17

B17: Phage-2528 (peptide)
peptide: YEKWCTPAWMCDFV
modifications: cysteine pairing not given here; also: fused to phage pIII, linker and fusion site not given here
notes: as for B16
[3]
  Phage binding ELISA signal, Anti-PSMA Fab: 1.17

B18: Phage-2529 (peptide)
peptide: IVKWCTPHWMCSGW
modifications: cysteine pairing not given here; also: fused to phage pIII, linker and fusion site not given here
notes: as for B16
[3]
  Phage binding ELISA signal, Anti-PSMA Fab: 1.17

B19: Phage-2530 (peptide)
peptide: VTHWCIPEWMCVVE
modifications: cysteine pairing not given here; also: fused to phage pIII, linker and fusion site not given here
notes: as for B16
[3]
  Phage binding ELISA signal, Anti-PSMA Fab: 1.17

B20: Phage-2531 (peptide)
peptide: YEKWCIPRWMCEAN
modifications: cysteine pairing not given here; also: fused to phage pIII, linker and fusion site not given here
notes: as for B16
[3]
  Phage binding ELISA signal, Anti-PSMA Fab: 1.16

B21: Phage-2532 (peptide)
peptide: EHRWCIPVWMCEKS
modifications: cysteine pairing not given here; also: fused to phage pIII, linker and fusion site not given here
notes: as for B16
[3]
  Phage binding ELISA signal, Anti-PSMA Fab: 1.16

B22: Phage-2533 (peptide)
peptide: PVPLCRPPWMCQSV
modifications: cysteine pairing not given here; also: fused to phage pIII, linker and fusion site not given here
notes: as for B16
[3]
  Phage binding ELISA signal, Anti-PSMA Fab: 1.16

B23: Phage-2534 (peptide)
peptide: VPKWCIPVWMCEVM
modifications: cysteine pairing not given here; also: fused to phage pIII, linker and fusion site not given here
notes: as for B16
[3]
  Phage binding ELISA signal, Anti-PSMA Fab: 1.16

B24: Phage-2535 (peptide)
peptide: DWKWCTPAWMCSTE
modifications: cysteine pairing not given here; also: fused to phage pIII, linker and fusion site not given here
notes: as for B16
[3]
  Phage binding ELISA signal, Anti-PSMA Fab: 1.16

B25: Phage-2536 (peptide)
peptide: VSPKCIPPWMCSYV
modifications: cysteine pairing not given here; also: fused to phage pIII, linker and fusion site not given here
notes: as for B16
[3]
  Phage binding ELISA signal, Anti-PSMA Fab: 1.16

B26: Phage-2537 (peptide)
peptide: EMKWCIPQWMCADS
modifications: cysteine pairing not given here; also: fused to phage pIII, linker and fusion site not given here
notes: as for B16
[3]
  Phage binding ELISA signal, Anti-PSMA Fab: 1.16

B27: Phage-2538 (peptide)
peptide: EPKWCVPPWMCAYD
modifications: cysteine pairing not given here; also: fused to phage pIII, linker and fusion site not given here
notes: as for B16
[3]
  Phage binding ELISA signal, Anti-PSMA Fab: 1.16

B28: Phage-2539 (peptide)
peptide: LMNWCIPSWMCDVE
modifications: cysteine pairing not given here; also: fused to phage pIII, linker and fusion site not given here
notes: as for B16
[3]
  Phage binding ELISA signal, Anti-PSMA Fab: 1.15

B29: Phage-2540 (peptide)
peptide: EMKWCTPEWMCIGL
modifications: cysteine pairing not given here; also: fused to phage pIII, linker and fusion site not given here
notes: as for B16
[3]
  Phage binding ELISA signal, Anti-PSMA Fab: 1.15

B30: Phage-2541 (peptide)
peptide: PTKWCIPEWMCVES
modifications: cysteine pairing not given here; also: fused to phage pIII, linker and fusion site not given here
notes: as for B16
[3]
  Phage binding ELISA signal, Anti-PSMA Fab: 1.15
